Key:
[1] = target: T1, human serum albumin (human, UniProt P02768 25-609); assay: SPR (Biacore), immobilised HSA, pH 7.4
T1 construct: mature; Bought protein; biotinylated in the Octet and HTRF assays; also called HSA; HuSA
Protocol: (§1) Affinities for mouse, human, and cynomolgus serum were also measured at pH 7.4 for four (4) AFFIMER® binders using surface plasmon resonance (SPR) (FIG. 5, Table 5). […] A concentration titration of AFFIMER® monomers was run as analyte at a flow rate of 30 μl/min or 60 μl/min. Fc2-1, Fc3-1 and Fc4-1 kinetic data was blank subtracted and fit to a 1:1 Langmuir binding model (BIAcore Evalution software; GE) to calculate KD values.

[2] = target: T1, human serum albumin; assay: Biacore, immobilised HSA, pH 7.4
Protocol: as §1

[3] = target: T2, cynomolgus serum albumin (cynomolgus); assay: binding ELISA, coated albumin, pH 7.4
T2 construct: also called CSA; cyno serum albumin
Protocol: (§2) Briefly, ELISA was performed as follow:
(§3) Human (Sigma-Aldrich); Cynomolgus and Mouse (Abcam); Equine (Abcam); Canine (Abcam); Mouse (Sigma-Aldrich); Rabbit (Sigma-Aldrich); Porcine (Sigma-Aldrich);, and Rat (Sigma-Aldrich) serum albumin were coated overnight on 96 well plates (Corning Costar) at 1 μg/ml in PBS at the appropriate pH (pH 6.0 or 7.4). Plates were saturated using 5% Casein (Sigma-Aldrich) buffer in PBS. […] Plates were then washed and AFFIMER® proteins were detected using a biotinylated polyclonal antibody anti-Cystatin (R&D System) for 90 minutes. After washing, streptavidin-HRP (Thermo Fisher Scientific) was added and incubated for 30 minutes.

[4] = target: porcine serum albumin (porcine, UniProt P08835 25-607); assay: binding ELISA, coated albumin, pH 7.4
Protocol: as §2, §3

[5] = target: T3, rat serum albumin (rat, UniProt P02770 25-608); assay: binding ELISA, coated albumin, pH 7.4
Protocol: as §2, §3

[6] = target: T1, human serum albumin; assay: binding ELISA, coated albumin, pH 7.4
Protocol: as §2, §3

[7] = target: T2, cynomolgus serum albumin; assay: BLI (Octet), biotinylated albumin on SA sensor, pH 6.0
Method in brief: (§4)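 First, biotinylated albumin (1 μg/ml, 600 s) was immobilised on SA tips in PBS-T with 1% casein at pH 6.0 or 7.4. Next, serially diluted AFFIMER® polypeptide associated for 300 s, then dissociated for 600 s, at 25° C and 1000 rpm. Finally, sensors were regenerated with 10 mM glycine pH 1.5.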

[8] = target: T1, human serum albumin; assay: as above
Method in brief: as §4

[9] = target: T4, mouse serum albumin (mouse, UniProt P07724 25-608); assay: as above
T4 construct: also called MSA
Method in brief: as §4

[10] = target: T2, cynomolgus serum albumin; assay: BLI (Octet), biotinylated albumin on SA sensor, pH 7.4
Method in brief: as §4

[11] = target: T1, human serum albumin; assay: as above
Method in brief: as §4

[12] = target: T4, mouse serum albumin; assay: as above
Method in brief: as §4

[13] = target: T5, recombinant FcRn (Homo sapiens (Human), UniProt P55899 24-297; P61769 21-119, Biotinylated (site and any tag carrying the biotin are not stated); captured on a Biotin CAPture chip.); assay: Biacore, biotinylated FcRn on Biotin CAPture chip, PBS-T pH 6.0
T5 construct: Captured on a Biotin CAPture chip; also called biotinylated FcRn (Amsbio); copies: 1 + 1
Protocol: FcRn Biacore binding analysis was performed using Biotin CAPture chip according to the manufacturer's protocol (GE Healthcare). Briefly, Biotin CAPture reagent was run for 300 sec at a 2 μl/min flow rate over surfaces Fc1 and Fc2 followed by the capture of biotinylated FcRn (Amsbio) at 10 μg/mL with a contact time of 50 seconds, run at 10 μl/min delivered to Fc2 only. […] Surface Fc1 and Fc2 regeneration was performed according to the manufacturer's protocol.

[14] = target: T2, cynomolgus serum albumin; assay: SPR (Biacore T200), albumin amine-coupled to CM5, Affimer analyte, pH 7.4
Protocol: as §1

[15] = target: T1, human serum albumin; assay: as above
Protocol: as §1

[16] = target: T4, mouse serum albumin; assay: as above
Protocol: as §1

[17] = target: T2, cynomolgus serum albumin; assay: binding ELISA on coated albumin, pH 6.0, panel 'CSA Binding at pH 6.0'
Protocol: as §2, §3

[18] = target: T1, human serum albumin; assay: binding ELISA on coated albumin, pH 6.0, panel 'HSA Binding at pH 6.0'
Protocol: as §2, §3

[19] = target: T3, rat serum albumin; assay: binding ELISA on coated albumin, pH 6.0, panel 'Rat SA Binding at pH 6.0'
Protocol: as §2, §3

[20] = target: T2, cynomolgus serum albumin; assay: Octet biolayer interferometry, biotinylated albumin on SA sensors, pH 6.0
Protocol: (§5) Biotinylated antigen was captured onto SA sensors at 1 μg/ml for 600 seconds in a buffer comprising PBS-T (0.01% Tween 20)+1% casein at either pH 6.0 or 7.4. Association was carried out for 300 seconds and dissociation for 600 seconds, and regeneration was performed using 10 mM glycine pH 1.5 (GE Healthcare) for 3×5 seconds. All steps were carried out at 1000 rpm and 25° C. Purified AFFIMER® polypeptide in two-fold serial dilutions was analyzed at a starting concentration of approximately 10× K_{D value}. Kinetics analyses were carried out using the Octet data analysis software, subtracting the reference sensor (loaded with antigen), aligning the Y-axis to baseline, and using inter-step correction to align association to dissociation. Savitzky-Golay filtering was applied and the data processed. Analysis of the data was carried out with a 1:1 model, global fit, Rₘₐₓ unlinked by sensor.

[21] = target: T1, human serum albumin; assay: as above
Protocol: as §5

[22] = target: T4, mouse serum albumin; assay: as above
Protocol: as §5

[23] = target: T2, cynomolgus serum albumin; assay: Octet biolayer interferometry, biotinylated albumin on SA sensors, pH 7.4
Protocol: as §5

[24] = target: T1, human serum albumin; assay: as above
Protocol: as §5

[25] = target: T4, mouse serum albumin; assay: as above
Protocol: as §5

[26] = target: canine serum albumin (canine, UniProt P49822 25-608); assay: binding ELISA on coated albumin, pH 6.0, panel 'Canine SA Binding at pH 6.0'
Protocol: as §2, §3

[27] = target: equine serum albumin (equine, UniProt P35747 25-607); assay: binding ELISA on coated albumin, pH 7.4, panel 'Equine SA Binding at pH 7.4' (Table 6 gives NA for this pair)
Protocol: as §2, §3

[28] = target: rabbit serum albumin (rabbit, UniProt P49065 25-608); assay: binding ELISA on coated albumin, pH 7.4, panel 'Rabbit SA Binding at pH 7.4' (Table 6 gives NA for this pair)
Protocol: as §2, §3

[29] = target: T6, mouse PD-L1-Fc tagged recombinant antigen (R&D systems) (mouse, UniProt Q9EP73 19-238); assay: SPR (Biacore), mouse PD-L1-Fc captured on Protein A chip, single cycle kinetics
T6 construct: Captured on a Protein A chip; not shown: Fc part of the bought protein, not described
Protocol: (§6) Aantigen was captured using a Protein A chip (GE Healthcare) and the AFFIMER® ILF format was run as an analyte using single cycle kinetics titrating from a maximum concentration of 1 nM, and regenerating using 10 mM glycine pH 1.5 (GE Healthcare).

[30] = target: T6, mouse PD-L1-Fc tagged recombinant …; assay: Biacore single cycle kinetics, mouse PD-L1-Fc captured on Protein A chip
Protocol: as §6

[31] = target: T4, mouse serum albumin; assay: binding ELISA on coated MSA, panel title 'Affimer binding to MSA, pH 7' (legend: pH 7.4)
Protocol: as §3
(§7) Briefly, PD-1 was coated overnight on the plate at 1 μg/ml in carbonate buffer. Then plates were saturated using 5% Casein/PBS buffer. […] After saturation, the mix was added to the plates and incubated for 90 minutes. Plates were then washed and the detection polyclonal antibody, biotinylated anti-PD-L1, was added. After washing the plates, streptavidin-HRP was added for 30 minutes. After a final wash, development of the reaction was performed using TMB (Pierce) and the plates were read using a plate reader at 450 nm (FIG. 26C).

[32] = target: T7, mPD-L1 (mouse, UniProt Q9EP73 19-238, limits assumed); assay: competition ELISA: mPD-L1 pre-incubated with the AFFIMER polypeptide and added to coated mPD-1; blocked ligand mPD-1
T7 construct: May be the same reagent as the mouse PD-L1-Fc of the Biacore run
Protocol: as §7

T4 sequence (P07724 25-608 limits assumed): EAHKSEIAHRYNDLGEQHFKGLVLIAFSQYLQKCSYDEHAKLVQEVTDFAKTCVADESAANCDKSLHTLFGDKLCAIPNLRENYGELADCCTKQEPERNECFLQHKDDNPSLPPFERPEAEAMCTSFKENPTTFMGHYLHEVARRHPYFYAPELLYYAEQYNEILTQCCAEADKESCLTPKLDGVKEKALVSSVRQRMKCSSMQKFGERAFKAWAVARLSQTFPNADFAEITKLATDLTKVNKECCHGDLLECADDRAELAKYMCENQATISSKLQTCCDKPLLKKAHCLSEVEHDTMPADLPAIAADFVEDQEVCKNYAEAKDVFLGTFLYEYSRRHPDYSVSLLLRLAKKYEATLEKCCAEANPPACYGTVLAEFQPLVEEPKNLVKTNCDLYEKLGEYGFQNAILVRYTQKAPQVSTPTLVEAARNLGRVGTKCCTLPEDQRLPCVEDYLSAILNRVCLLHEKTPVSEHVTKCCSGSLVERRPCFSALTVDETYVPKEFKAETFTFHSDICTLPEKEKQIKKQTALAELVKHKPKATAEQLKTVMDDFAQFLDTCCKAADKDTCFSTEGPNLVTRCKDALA
T6 sequence (Q9EP73 19-238 limits assumed): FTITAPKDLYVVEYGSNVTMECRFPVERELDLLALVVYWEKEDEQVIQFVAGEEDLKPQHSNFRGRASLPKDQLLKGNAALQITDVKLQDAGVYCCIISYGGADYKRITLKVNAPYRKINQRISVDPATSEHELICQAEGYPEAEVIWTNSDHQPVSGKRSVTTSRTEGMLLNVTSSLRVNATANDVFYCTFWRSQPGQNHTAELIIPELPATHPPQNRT
T2 sequence (A2V9Z4 25-608): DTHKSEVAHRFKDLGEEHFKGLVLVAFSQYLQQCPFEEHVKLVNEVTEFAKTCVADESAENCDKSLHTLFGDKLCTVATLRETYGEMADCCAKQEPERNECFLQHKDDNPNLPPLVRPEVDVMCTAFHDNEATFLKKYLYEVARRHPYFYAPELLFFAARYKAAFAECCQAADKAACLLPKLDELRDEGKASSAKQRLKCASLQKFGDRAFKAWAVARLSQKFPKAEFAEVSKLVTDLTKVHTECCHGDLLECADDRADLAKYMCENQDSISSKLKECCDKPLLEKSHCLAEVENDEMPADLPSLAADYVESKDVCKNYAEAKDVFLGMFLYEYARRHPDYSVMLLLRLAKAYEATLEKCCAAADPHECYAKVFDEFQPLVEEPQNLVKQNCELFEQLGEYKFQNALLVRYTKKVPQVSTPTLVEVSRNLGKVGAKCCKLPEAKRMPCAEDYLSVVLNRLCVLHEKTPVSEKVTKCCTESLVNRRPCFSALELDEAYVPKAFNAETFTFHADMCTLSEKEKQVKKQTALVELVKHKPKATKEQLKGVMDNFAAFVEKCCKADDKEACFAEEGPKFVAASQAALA
T3 sequence (P02770 25-608 limits assumed): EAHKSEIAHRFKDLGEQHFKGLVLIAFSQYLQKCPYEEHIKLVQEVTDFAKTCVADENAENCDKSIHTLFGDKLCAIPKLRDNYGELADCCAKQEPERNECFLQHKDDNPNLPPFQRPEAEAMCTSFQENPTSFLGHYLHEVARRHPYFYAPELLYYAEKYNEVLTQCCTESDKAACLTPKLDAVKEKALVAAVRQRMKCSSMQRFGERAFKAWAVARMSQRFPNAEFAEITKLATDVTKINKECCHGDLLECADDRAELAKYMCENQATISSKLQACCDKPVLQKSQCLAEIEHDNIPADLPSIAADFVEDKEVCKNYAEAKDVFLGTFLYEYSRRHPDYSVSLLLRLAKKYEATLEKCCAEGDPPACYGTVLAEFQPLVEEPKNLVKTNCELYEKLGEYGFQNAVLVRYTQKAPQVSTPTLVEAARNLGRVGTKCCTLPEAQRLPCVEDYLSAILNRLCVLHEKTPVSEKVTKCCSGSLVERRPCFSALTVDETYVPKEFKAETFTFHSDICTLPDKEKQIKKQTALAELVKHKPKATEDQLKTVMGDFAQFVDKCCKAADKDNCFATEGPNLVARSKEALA
Sequence of rabbit serum albumin (P49065 25-608 limits assumed): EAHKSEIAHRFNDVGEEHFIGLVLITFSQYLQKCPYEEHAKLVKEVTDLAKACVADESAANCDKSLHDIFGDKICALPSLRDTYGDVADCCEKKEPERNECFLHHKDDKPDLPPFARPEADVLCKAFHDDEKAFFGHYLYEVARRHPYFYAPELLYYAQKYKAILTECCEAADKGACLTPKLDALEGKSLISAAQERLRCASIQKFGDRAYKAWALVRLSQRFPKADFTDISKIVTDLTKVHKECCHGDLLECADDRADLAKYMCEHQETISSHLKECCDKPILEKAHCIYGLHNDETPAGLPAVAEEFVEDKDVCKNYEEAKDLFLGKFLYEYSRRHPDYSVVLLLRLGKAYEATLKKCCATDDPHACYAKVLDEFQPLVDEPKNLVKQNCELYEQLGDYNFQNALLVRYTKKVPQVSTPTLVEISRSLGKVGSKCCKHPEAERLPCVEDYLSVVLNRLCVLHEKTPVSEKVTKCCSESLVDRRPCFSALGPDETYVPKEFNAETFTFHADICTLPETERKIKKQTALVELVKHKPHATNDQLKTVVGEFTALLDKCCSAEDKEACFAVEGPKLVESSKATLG
Sequence of porcine serum albumin (P08835 25-607 limits assumed): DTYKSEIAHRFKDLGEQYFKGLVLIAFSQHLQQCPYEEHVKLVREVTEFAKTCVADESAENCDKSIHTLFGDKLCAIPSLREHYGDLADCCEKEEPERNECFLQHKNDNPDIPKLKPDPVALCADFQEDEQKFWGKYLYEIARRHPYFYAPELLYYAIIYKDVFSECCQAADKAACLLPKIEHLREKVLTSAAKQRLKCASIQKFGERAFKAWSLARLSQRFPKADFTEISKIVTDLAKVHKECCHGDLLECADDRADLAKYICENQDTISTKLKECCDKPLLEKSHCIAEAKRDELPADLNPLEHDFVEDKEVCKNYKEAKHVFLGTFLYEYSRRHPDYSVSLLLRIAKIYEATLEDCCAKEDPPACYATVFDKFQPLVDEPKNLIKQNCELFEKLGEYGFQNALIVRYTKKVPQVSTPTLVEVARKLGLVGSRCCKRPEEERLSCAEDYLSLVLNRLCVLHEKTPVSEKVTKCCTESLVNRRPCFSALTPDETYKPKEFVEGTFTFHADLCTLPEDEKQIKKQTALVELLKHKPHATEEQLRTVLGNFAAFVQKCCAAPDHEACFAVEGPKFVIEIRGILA
T5 sequence (P55899 24-297 limits assumed, chain 1 of 2): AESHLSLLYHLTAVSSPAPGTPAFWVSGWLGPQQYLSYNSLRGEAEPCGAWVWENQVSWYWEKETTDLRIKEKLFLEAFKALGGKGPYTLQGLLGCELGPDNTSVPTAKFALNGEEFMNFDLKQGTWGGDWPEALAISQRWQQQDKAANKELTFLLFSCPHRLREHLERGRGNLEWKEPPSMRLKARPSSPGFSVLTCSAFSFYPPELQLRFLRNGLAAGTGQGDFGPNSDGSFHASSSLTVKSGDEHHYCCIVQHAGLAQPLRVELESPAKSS
T5 sequence (P61769 21-119 limits assumed, chain 2 of 2): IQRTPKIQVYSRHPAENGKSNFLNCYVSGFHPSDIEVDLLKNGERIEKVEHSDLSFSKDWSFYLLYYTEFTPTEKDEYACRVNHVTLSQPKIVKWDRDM
T7 sequence (Q9EP73 19-238 limits assumed): as the sequence (Q9EP73 19-238 limits assumed) above
Sequence of equine serum albumin (P35747 25-607 limits assumed): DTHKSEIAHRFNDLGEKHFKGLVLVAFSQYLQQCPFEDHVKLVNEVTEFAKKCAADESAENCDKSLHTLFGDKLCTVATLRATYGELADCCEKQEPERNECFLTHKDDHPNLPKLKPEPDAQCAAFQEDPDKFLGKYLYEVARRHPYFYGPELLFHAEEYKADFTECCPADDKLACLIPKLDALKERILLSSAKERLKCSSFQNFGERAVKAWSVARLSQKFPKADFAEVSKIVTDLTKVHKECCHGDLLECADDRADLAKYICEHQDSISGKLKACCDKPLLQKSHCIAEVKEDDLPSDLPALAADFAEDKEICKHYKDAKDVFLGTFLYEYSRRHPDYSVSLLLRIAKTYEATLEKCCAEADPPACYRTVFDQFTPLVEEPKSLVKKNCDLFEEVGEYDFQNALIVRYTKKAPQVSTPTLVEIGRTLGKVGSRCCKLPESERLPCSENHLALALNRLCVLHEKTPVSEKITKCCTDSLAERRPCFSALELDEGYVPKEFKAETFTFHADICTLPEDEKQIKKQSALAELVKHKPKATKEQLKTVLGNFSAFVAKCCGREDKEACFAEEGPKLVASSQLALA
Sequence of canine serum albumin (P49822 25-608 limits assumed): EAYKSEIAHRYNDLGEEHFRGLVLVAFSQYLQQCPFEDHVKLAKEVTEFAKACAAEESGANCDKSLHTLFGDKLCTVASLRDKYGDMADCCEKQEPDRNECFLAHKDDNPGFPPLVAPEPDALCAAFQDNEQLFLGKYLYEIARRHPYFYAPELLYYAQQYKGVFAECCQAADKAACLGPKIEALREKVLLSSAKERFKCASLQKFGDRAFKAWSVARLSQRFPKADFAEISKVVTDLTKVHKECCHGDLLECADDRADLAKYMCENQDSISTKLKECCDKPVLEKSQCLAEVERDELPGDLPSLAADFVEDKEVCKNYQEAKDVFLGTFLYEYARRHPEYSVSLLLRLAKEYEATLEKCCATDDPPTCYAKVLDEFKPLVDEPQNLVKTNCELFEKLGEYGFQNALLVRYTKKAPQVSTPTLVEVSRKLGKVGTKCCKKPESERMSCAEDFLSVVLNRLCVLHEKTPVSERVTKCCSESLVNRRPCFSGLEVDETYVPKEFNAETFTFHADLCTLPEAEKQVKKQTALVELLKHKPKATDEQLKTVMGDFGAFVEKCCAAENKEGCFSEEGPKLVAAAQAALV

B1: HSA-41 CQ (designed binder)
chain: MIPRGLSEAKPATPEIQEIVDKVKPQLEEKTNETYGKLEAVQYKTQVLANFFQRRWPGSTNYYIKVRAGDNKYMHLKVFNGPWKFRNTDRGADRVLTGYQVDKNKDDELTGFAAAGGRAEQKLISEEDLGCAENLYFQGGAAGHHHHHH
notes: Purified in the presence of 5 mM TCEP; also called HSA-41 free C-terminal cysteine format (CQ); HAS-41 CQ
[1]
  Kd: ~3 nM
[2]
  Kd: 3.21 nM
  koff: 0.00663 s⁻¹
  kon: 2.07e+06 M⁻¹ s⁻¹

B2: HSA-20 (designed binder)
chain: MIPRGLSEAKPATPEIQEIVDKVKPQLEEKTNETYGKLEAVQYKTQVLAGYWAAKWPGSTNYYIKVRAGDNKYMHLKVFNGPFPNTSYDLQADRVLTGYQVDKNKDDELTGFHHHHHH
[3]
  EC50: 9.55 nM
[4]
  EC50: 894 nM
[5]
  EC50: 16.1 nM
[6]
  EC50: 18.9 nM
[7]
  Kd: 133 nM
[8]
  Kd: 23.4 nM
[9]
  Kd: 511 nM
[10]
  Kd: 213 nM
[11]
  Kd: 40.5 nM
[12]
  Kd: 622 nM
[13]
  binding result: no binding
[14]
  Kd: 419 nM
  koff: 0.0199 s⁻¹
  kon: 47600 M⁻¹ s⁻¹
[15]
  Kd: 350 nM
  koff: 0.0183 s⁻¹
  kon: 52200 M⁻¹ s⁻¹
[16]
  Kd: 855 nM
  koff: 0.0981 s⁻¹
  kon: 115000 M⁻¹ s⁻¹
[17]
  EC50 (read off the curve): ~20 nM
[18]
  EC50 (read off the curve): ~7 nM
[19]
  EC50 (read off the curve): ~1 nM
[20]
  koff: 0.00611 s⁻¹
  kon: 45700 M⁻¹ s⁻¹
[21]
  koff: 0.00501 s⁻¹
  kon: 214000 M⁻¹ s⁻¹
[22]
  koff: 0.0596 s⁻¹
  kon: 117000 M⁻¹ s⁻¹
[23]
  koff: 0.0148 s⁻¹
  kon: 69600 M⁻¹ s⁻¹
[24]
  koff: 0.00517 s⁻¹
  kon: 128000 M⁻¹ s⁻¹
[25]
  koff: 0.0509 s⁻¹
  kon: 81800 M⁻¹ s⁻¹
[26]
  EC50 (read off the curve): ~20 nM
[27]
  binding result: binds
[28]
  binding result: binds

B3: AVA04-182 XT20 (designed binder)
chain: MIPRGLSEAKPATPEIQEIVDKVKPQLEEKTNETYGKLEAVQYKTQVLAFALPEFEYMSTNYYIKVRAGDNKYMHLKVFNGPPMIRRKNEVADRVLTGYQVDKNKDDELTGFAEAAAKEAAAKEAAAKEAAAKEAAAKEAAAKMIPRGLSEAKPATPEIQEIVDKVKPQLEEKTNETYGKLEAVQYKTQVLAFALPEFEYMSTNYYIKVRAGDNKYMHLKVFNGPPMIRRKNEVADRVLTGYQVDKNKDDELTGFAEAAAKEAAAKEAAAKEAAAKEAAAKEAAAKMIPRGLSEAKPATPEIQEIVDKVKPQLEEKTNETYGKLEAVQYKTQVLANFFQRRWPGSTNYYIKVRAGDNKYMHLKVFNGPWKFRNTDRGADRVLTGYQVDKNKDDELTGFHHHHHH
[29]
  Kd: 0.0906 nM
[30]
  koff: 0.0025 s⁻¹
  kon: 2.76e+07 M⁻¹ s⁻¹
[31]
  binding result: binds
[32]
  IC50: 135 nM
